T1: Recombinant LRP-1 mini-domain DII with an Fc-tag (UniProt Q07954 852-1182)
T1 construct: No catalogue number is printed; also called LRP-1 domain II; source: bought: R&D
T1 sequence (looked up): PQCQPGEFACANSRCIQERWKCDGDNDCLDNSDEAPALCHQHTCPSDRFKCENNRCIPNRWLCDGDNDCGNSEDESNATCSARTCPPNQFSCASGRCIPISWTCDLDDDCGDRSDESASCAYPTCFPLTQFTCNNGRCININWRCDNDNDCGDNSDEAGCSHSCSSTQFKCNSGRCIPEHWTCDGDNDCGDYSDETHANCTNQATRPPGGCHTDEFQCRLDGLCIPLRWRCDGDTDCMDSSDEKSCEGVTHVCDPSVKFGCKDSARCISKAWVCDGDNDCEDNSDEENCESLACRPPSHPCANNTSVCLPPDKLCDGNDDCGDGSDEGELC

T2: MMP-2 (UniProt P08253 110-660)
T2 construct: MMP-2; source: bought: Merck Biosciences
T2 sequence (looked up): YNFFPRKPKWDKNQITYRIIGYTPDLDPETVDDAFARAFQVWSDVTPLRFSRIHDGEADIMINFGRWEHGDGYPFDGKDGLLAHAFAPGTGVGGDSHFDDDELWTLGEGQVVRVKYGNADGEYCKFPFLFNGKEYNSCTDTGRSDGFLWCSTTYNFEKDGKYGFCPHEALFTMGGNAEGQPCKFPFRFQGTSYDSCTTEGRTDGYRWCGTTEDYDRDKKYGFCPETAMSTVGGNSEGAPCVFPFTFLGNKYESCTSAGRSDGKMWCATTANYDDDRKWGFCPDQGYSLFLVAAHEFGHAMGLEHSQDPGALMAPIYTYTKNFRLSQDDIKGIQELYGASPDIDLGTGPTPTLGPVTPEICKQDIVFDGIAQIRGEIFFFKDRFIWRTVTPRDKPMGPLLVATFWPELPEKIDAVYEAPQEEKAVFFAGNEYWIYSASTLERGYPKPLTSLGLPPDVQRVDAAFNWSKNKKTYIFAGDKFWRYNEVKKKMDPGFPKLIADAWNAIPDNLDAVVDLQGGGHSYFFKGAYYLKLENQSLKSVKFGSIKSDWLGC


How the values were obtained:
[1] = target: T1, Recombinant LRP-1 mini-domain DII with …; test: SPR; Biacore T200; LRP-1 DII or DIV with Fc-tag immobilised on a CMD500m chip functionalised with anti-Fc antibody; TIMP-1 or mutants 5-160 nM injected, multi-cycle kinetics; HBS-N (50 mM Hepes, 150 mM NaCl, 0.005% Tween, pH 7.4); KD calculated from kon and koff; conditions: both partners purified
[2] = target: T3, Recombinant LRP-1 mini-domain DIV with an Fc-tag (UniProt Q07954 3332-3778); test: as above; conditions: both partners purified
T3 construct: No catalogue number is printed; also called LRP-1 domain IV; source: bought: R&D

MMP-9 = target: T4, MMP-9 (UniProt P14780 107-707); test: enzyme inhibition assay (fluorogenic substrate, Morrison equation); 0.3 nM MMP-9 incubated 2 h at 27 °C with 0.7 to 11 nM TIMP-1 or mutants in 50 mM Tris-HCl pH 7.5, 150 mM NaCl, 5 mM CaCl2; 5 µM MMP-1/-9 fluorogenic substrate; conditions: both partners purified
T4 construct: MMP-9; source: bought: Merck Biosciences

MMP-2 = target: T2, MMP-2; test: enzyme inhibition assay (fluorogenic substrate, Morrison equation); 0.76 nM MMP-2 incubated 2 h at 27 °C with 0.17 to 13.5 nM TIMP-1 or mutants in 50 mM Tris-HCl pH 7.5, 150 mM NaCl, 5 mM CaCl2; 2.5 µM MMP-2/-7 fluorogenic substrate; conditions: both partners purified
MMP-3 catalytic domain = target: T5, MMP-3 catalytic domain (UniProt P08254 100-272); test: enzyme inhibition assay (fluorogenic substrate, Morrison equation); 2.3 nM MMP-3 catalytic domain incubated 1 h at 27 °C with 0.1 to 5.4 nM TIMP-1 or mutants in 50 mM Tris-HCl pH 7.5, 150 mM NaCl, 5 mM CaCl2; 3 µM MMP-3 fluorogenic substrate; conditions: both partners purified
T5 construct: MMP-3 catalytic domain; source: bought: Merck Biosciences

[3] = target: T6, low-density lipoprotein receptor-related protein-1 (LRP-1) on mouse cortical neurons (mouse (endogenous in cortical neurons), UniProt Q91ZX7 20-4545); test: fluorescence of ligand bound to the cell surface (released by pronase, spectrofluorimetry); mouse cortical neurons incubated at 4 °C with 5 nM eFluor-conjugated TIMP-1 or mutants, with or without 500 nM RAP or 30 µg/mL LRP-1 blocking antibodies R2629; washed, surface-digested with 0.1% pronase, fluorescence of the supernatant; conditions: one partner purified
T6 construct: LRP-1 at the surface of primary cortical neurons; extracellular alpha-chain non-covalently associated with the transmembrane beta-chain; source: endogenous, primary cortical neurons from CD1 mouse embryos
T6 sequence (Q91ZX7 20-4545): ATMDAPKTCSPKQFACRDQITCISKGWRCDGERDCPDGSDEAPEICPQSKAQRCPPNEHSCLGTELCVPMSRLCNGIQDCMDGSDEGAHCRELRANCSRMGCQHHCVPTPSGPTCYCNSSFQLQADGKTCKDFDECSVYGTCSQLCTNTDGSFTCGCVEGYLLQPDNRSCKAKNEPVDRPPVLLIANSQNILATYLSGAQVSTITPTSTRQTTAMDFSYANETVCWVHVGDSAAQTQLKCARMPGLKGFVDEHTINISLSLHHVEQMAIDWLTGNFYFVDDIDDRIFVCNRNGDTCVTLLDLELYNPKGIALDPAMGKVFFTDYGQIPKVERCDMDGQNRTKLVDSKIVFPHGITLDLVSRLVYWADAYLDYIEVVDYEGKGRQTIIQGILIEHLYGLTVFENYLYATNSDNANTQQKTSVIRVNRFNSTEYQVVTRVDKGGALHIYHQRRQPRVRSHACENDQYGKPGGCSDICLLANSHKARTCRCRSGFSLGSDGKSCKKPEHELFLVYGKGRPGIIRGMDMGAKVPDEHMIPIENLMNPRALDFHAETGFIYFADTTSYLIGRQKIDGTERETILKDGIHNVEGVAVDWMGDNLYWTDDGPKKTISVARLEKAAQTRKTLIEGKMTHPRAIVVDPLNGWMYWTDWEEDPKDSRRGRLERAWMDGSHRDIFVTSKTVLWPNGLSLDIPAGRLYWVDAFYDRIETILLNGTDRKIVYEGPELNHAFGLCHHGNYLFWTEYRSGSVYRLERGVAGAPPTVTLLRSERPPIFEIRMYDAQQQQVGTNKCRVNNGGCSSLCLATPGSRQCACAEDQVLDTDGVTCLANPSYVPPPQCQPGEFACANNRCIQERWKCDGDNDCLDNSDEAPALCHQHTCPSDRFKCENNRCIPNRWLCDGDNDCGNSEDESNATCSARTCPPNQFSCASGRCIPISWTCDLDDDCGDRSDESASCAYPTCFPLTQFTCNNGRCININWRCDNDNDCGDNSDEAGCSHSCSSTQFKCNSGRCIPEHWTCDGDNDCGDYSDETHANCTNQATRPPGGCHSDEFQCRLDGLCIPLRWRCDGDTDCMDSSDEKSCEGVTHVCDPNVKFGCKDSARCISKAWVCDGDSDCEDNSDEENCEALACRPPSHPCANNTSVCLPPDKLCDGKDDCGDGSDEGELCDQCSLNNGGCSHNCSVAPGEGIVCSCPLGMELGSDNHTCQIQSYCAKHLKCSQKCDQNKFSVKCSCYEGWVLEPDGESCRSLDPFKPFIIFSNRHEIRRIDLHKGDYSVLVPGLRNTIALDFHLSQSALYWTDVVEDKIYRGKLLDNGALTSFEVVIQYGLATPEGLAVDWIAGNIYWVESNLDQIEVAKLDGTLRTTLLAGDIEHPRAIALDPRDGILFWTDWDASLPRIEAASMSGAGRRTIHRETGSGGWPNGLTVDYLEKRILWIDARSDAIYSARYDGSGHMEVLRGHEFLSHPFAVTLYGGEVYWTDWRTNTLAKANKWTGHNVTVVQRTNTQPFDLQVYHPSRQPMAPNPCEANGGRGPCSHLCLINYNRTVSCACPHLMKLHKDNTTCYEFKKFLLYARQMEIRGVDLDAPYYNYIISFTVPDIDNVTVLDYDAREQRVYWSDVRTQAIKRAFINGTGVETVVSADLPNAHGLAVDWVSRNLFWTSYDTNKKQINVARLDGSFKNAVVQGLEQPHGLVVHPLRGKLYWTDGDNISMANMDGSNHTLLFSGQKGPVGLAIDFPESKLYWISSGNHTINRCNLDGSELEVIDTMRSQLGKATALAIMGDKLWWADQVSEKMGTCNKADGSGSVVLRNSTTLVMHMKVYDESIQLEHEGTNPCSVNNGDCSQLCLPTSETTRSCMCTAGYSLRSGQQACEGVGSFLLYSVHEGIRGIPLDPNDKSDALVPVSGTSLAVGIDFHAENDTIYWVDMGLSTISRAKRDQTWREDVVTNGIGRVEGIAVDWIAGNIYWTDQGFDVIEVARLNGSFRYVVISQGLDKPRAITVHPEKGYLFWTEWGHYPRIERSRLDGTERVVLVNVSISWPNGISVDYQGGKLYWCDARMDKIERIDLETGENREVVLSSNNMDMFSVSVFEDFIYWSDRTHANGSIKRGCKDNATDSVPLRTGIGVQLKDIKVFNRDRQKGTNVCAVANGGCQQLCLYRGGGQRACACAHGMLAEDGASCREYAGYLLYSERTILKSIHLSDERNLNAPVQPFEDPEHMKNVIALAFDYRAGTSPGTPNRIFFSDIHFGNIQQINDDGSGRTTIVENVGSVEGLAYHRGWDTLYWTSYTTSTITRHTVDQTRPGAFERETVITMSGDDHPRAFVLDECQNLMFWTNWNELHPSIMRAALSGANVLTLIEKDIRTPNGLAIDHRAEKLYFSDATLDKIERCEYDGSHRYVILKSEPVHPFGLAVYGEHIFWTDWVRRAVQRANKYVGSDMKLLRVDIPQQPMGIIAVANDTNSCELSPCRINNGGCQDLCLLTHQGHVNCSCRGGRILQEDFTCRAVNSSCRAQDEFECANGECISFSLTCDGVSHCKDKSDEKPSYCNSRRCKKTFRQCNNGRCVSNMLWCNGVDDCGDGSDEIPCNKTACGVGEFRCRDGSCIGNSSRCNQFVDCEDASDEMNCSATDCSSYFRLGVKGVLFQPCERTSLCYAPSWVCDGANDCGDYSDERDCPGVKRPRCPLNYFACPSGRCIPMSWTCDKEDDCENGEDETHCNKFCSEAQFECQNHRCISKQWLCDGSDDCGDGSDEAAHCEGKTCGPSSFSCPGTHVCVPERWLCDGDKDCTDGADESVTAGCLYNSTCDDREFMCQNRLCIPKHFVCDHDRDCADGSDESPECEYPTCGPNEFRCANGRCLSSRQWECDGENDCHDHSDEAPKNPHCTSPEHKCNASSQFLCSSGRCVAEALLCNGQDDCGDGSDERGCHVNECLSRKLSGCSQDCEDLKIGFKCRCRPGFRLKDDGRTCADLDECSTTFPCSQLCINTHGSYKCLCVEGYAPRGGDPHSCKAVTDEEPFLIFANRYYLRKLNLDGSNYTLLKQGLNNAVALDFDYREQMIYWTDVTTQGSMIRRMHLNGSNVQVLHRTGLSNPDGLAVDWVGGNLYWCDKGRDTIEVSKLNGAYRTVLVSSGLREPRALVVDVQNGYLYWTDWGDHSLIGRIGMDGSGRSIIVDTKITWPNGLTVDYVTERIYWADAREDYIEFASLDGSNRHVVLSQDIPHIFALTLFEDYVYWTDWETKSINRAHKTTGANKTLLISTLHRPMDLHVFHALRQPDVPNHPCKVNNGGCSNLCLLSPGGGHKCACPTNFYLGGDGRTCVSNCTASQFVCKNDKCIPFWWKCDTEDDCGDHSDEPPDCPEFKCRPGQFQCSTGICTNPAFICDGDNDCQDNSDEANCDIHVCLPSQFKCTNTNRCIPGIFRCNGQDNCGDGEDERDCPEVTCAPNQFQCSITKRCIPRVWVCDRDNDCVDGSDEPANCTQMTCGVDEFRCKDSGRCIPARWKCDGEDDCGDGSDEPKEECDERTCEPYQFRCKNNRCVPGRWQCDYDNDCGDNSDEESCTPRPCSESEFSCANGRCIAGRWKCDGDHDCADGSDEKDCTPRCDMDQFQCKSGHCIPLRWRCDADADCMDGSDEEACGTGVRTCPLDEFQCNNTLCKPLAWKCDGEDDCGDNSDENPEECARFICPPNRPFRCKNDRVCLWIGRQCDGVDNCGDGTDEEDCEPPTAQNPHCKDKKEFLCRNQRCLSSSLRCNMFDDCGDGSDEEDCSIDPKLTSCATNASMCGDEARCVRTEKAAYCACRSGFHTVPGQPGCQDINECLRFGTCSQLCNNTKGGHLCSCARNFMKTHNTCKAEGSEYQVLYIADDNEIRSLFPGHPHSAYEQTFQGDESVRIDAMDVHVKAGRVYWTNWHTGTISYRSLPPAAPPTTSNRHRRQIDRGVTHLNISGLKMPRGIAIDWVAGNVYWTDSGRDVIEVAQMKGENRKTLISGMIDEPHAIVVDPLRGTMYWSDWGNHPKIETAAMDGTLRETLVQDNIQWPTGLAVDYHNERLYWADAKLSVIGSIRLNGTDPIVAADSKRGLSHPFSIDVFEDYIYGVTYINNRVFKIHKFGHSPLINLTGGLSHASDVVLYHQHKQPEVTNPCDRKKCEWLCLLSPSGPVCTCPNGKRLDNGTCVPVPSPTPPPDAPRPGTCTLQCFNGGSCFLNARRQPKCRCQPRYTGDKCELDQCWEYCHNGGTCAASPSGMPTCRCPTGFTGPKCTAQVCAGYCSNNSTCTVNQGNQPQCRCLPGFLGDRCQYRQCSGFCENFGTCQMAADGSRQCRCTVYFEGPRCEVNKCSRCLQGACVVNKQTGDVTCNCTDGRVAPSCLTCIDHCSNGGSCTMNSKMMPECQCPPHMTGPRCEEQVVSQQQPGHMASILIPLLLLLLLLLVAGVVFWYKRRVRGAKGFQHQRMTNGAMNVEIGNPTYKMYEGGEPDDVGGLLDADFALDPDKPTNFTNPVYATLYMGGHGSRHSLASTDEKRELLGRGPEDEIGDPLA

T4 sequence (P14780 107-707): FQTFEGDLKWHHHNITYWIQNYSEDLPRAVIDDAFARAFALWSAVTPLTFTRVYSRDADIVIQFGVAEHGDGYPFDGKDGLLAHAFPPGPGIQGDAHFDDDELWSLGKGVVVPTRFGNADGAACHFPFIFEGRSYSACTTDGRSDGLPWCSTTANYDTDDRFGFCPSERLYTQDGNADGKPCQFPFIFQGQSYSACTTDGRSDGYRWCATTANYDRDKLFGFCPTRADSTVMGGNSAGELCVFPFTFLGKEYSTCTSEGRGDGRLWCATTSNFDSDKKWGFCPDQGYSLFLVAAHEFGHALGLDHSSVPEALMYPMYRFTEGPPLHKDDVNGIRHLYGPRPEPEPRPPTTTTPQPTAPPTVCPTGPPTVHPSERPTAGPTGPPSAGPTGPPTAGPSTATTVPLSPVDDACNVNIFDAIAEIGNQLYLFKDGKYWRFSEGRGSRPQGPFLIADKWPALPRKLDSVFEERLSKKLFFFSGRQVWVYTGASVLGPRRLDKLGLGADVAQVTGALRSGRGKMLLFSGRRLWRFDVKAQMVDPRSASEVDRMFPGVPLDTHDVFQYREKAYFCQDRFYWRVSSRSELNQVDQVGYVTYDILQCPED

Row | Binder | Kd [1] | koff [1] | kon [1] | Kd [2] | koff [2] | kon [2] | Ki (MMP-9) | Ki (MMP-2) | Ki (MMP-3 catalytic domain) | fluorescence at the cell surface [3]
1 | FLAG-tagged TIMP-1 (tissue inhibitor of metalloproteinases-1), wild type (natural protein, glycosylated, TIMP-1, cDNA from Origene (pCMV6-XL5) cloned into p3XFLAG-CMV14 from the start ATG; secreted by CHO cells. numbers count on: the mature protein; its concentration was measured with a Human TIMP-1 ELISA kit and the modelling used PDB 1UEA; also called T1-WT; wild-type TIMP-1; source: CHO cells, stably transfected; not shown: 3X-FLAG, C-terminal, kept) not shown | 10.8 nM | 0.0136 s⁻¹ | 1.28e+06 M⁻¹ s⁻¹ | 37.4 nM | 0.0056 s⁻¹ | 148000 M⁻¹ s⁻¹ | 4.25 nM | 0.09 nM | 1.18 nM | 
2 | eFluor-conjugated T1-WT (natural protein, biotinylated (ProtOn Biotin Labelling Kit), incubated with eFluor 450 Streptavidin, TIMP-1 as in m1 (T1-WT), labelled. numbers count on: the mature protein; also called fluoT1-WT; fluo-T1-WT; source: CHO cells, stably transfected) not shown |  |  |  |  |  |  |  |  |  | ~1500 A.U.
3 | eFluor-conjugated T1-F12A (natural protein, biotinylated (ProtOn Biotin Labelling Kit), incubated with eFluor 450 Streptavidin, TIMP-1 F12A as in m2, labelled; also called fluoT1-F12A; fluo-T1-F12A; source: CHO cells, stably transfected) not shown |  |  |  |  |  |  |  |  |  | ~1500 A.U.

Next, values leading:

Row | Kd [1] | koff [1] | kon [1] | Kd [2] | koff [2] | kon [2] | Ki (MMP-9) | Ki (MMP-2) | Ki (MMP-3 catalytic domain) | fluorescence at the cell surface [3] | Binder
4 |  |  |  | 26.5 nM | 0.0114 s⁻¹ | 427000 M⁻¹ s⁻¹ | 4.4 nM | 0.03 nM | 0.55 nM |  | FLAG-tagged TIMP-1 K47A (natural protein, glycosylated, TIMP-1, cDNA from Origene, site-directed mutant K47A; secreted by CHO cells; also called T1-K47A; T1K47A; source: CHO cells, stably transfected; not shown: 3X-FLAG, C-terminal, kept) not shown
5 | 18.5 nM | 0.0192 s⁻¹ | 1.07e+06 M⁻¹ s⁻¹ | 38.7 nM | 0.0055 s⁻¹ | 143000 M⁻¹ s⁻¹ | 4.76 nM | 0.06 nM | 0.58 nM |  | FLAG-tagged TIMP-1 F12A (natural protein, glycosylated, TIMP-1, cDNA from Origene, site-directed mutant F12A; secreted by CHO cells; also called T1-F12A; source: CHO cells, stably transfected; not shown: 3X-FLAG, C-terminal, kept) not shown
6 |  |  |  |  |  |  |  |  |  | ~1500 A.U. | eFluor-conjugated T1-K47A (natural protein, biotinylated (ProtOn Biotin Labelling Kit), incubated with eFluor 450 Streptavidin, TIMP-1 K47A as in m3, labelled; also called fluoT1-K47A; fluoT1K47A; source: CHO cells, stably transfected) not shown
